For assay [1], the target named is T1, binding of peptide A to HIV-derived target peptides #SA2, #12, #18 (Human immunodeficiency virus type 1 group M subtype B, UniProt P03377).
T1 construct: His Glu Asp Ile Ile Ser Leu Trp Asp Gln Ser Leu Lys Pro Cys, Env; 105-119; Ile Asn Asn Thr Tyr THr Ser, Env; 621-645; Leu Asp Lys Trp Ala Ser, Env; 650-673; made in house; host or cells: chemical synthesis (synthetic peptides)
The assay can be described thus: Competition of the binding of biotin-labelled peptide A to HIV-derived peptides. The text has this:
This interaction was competed by peptide A itself, by the envelope peptides #SA2 Sequence I.D. #20, #12 Sequence I.D. #22 and #18 Sequence I.D. #21 but not by peptide #53 Sequence I.D. […]. Therefore, the three HIV-derived peptides seem to share functional homology with respect to the interaction with CFH since they all bind to the same region on SEQ. ID NO: 1.

The target of assay [2] is CFH (Homo sapiens, UniProt P08603). The settings on record: described in earlier publications of Pinter et al.; cited from earlier work.
In assay [3] the target is T2, binding of CFH to the HIV envelope peptides #SA2 (gp120), #18 and #12 (gp41) (Human immunodeficiency virus type 1 group M subtype B, UniProt P03377).
T2 construct: His Glu Asp Ile Ile Ser Leu Trp Asp Gln Ser Leu Lys Pro Cys, Env; 105-119; Ile Asn Asn Thr Tyr THr Ser, Env; 621-645; Leu Asp Lys Trp Ala Ser, Env; 650-673; made in house; host or cells: Env peptides: chemical synthesis; CFH: purified from normal human plasma (or fresh plasma used as the CFH source)
The settings on record: target peptides preincubated with competitor, washed, before CFH. Here is the method: Synthetic peptides and recombinant proteins were dissolved in Carbonate-bicarbonate buffer, 50 mM, pH 9.2 at 50 μg/ml (micrograms per milliliter) and 10 μg/ml, respectively, distributed in 100 μl aliquots into flat-bottomed 96-well ELISA plates (Greiner, Germany) and left at 37° C. for 3 hours. The plates were then washed three times in phosphate-buffered saline (PBS) and the wells were overcoated with a 3% (w/v) solution of bovine serum albumin (BSA) in PBS. The CFH source (either from fresh plasma or from plasma subjected to subsequent purification steps), was diluted to the appropriate concentration (1 mg/ml) in PBS-BT (=PBS containing 1% BSA and 1% Tween 20), pH 7.0 and exposed to the solid phase for one hour at 37° C. After washing in PBS+1% Tween 20 (=PBS-T), bound CFH was detected by the use of specific, biotin-labelled MAb 5H5, Pinter et al., AIDS Research & Human Retroviruses 11: 971, and peroxidase-labelled streptavidin (Sigma, Italy). The reaction was developed with o-phenylene-diamine/H2 O2 for fifteen minutes and then stopped by the addition of 4N H2 SO4. Absorbance was detected at […] with a MT450 microplate reader (BioRad).
Along with the above-described assay, a preincubation assay was also conducted with peptides. […] The solid phases were washed in PBS-T and CFH was detected with the biotin-labelled MAb 5H5 as previously described.

Assay [4] concerns the target T2, binding of CFH to the HIV envelope peptides #SA2 (gp120), #18 and #12 (gp41). The settings on record: previous work, Pinter et al., AIDS Research & Human Retroviruses 11:577; cited from earlier work.
For assay [5] the target is unchanged. The settings on record: competitor added simultaneously with CFH; ELISA, solid-phase peptides #SA2, #18, #12. In general terms: An ELISA detects its analyte on a solid surface through an enzyme-linked reagent.
In assay [6] the target is T3, gp41-derived peptide #18 (Env. 621-645) (Human Immunodeficiency Virus).
T3 peptide: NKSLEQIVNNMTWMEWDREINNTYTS
The assay can be described thus: competition ELISA against CFH binding to the immobilised envelope peptide.

Assay [7] deals with T4, gp41-derived peptide #12 (Env. 650-673) (Human Immunodeficiency Virus).
T4 peptide: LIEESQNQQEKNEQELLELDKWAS
The description is as above.

Assay [8] concerns the target T5, gp120-derived peptide #SA2 (Env. 105-119) (Human Immunodeficiency Virus).
T5 peptide: HEDIISLWDQSLKPC
Described as above.

For assay [9], the target named is T3, gp41-derived peptide #18 (Env. 621-645). The assay can be described thus: competition ELISA against CFH; inhibition due to interaction of peptide A with the solid phase (preincubation gave the same effect).
For assay [10], the target named is T4, gp41-derived peptide #12 (Env. 650-673). Described as above.
For assay [11], the target named is T5, gp120-derived peptide #SA2 (Env. …). The assay is described as above.

The source of these data is patent publication US6319890A, “Inhibition of binding of complement Factor H” (priority 1996, dated 2001).

T2 sequence (P03377 621-645, other chains not shown): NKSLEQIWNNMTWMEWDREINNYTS
CFH, sequence (P08603 19-1231): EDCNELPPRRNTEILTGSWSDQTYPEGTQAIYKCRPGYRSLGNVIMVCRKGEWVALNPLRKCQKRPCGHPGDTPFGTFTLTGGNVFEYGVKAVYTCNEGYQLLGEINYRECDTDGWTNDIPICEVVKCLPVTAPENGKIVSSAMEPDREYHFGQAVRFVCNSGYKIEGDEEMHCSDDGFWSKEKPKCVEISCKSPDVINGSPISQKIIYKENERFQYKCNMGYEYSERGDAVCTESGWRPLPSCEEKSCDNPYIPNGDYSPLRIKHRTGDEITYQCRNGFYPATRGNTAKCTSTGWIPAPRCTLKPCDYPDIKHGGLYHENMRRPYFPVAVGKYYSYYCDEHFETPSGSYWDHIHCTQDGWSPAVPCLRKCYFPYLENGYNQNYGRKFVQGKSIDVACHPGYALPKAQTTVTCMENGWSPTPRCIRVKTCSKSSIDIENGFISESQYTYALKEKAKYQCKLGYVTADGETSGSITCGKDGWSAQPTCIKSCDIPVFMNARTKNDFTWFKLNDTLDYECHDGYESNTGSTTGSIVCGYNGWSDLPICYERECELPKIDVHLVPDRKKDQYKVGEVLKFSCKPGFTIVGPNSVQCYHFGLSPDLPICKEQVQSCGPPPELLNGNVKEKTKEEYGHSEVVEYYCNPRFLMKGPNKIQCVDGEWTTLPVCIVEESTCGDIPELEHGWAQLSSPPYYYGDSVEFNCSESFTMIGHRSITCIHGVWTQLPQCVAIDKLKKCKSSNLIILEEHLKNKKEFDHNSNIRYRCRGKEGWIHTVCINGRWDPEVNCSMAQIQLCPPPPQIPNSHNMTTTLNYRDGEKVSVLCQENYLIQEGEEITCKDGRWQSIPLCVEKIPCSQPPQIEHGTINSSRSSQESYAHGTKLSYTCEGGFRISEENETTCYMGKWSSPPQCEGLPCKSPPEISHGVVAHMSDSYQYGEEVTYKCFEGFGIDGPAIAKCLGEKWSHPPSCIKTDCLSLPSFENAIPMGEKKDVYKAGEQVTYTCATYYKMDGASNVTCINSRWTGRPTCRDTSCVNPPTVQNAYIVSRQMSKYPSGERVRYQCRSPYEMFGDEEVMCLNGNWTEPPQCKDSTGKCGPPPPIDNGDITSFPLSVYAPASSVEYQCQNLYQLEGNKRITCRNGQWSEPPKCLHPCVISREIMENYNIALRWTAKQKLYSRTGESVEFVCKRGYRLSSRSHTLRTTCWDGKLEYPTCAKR

Take “Asn Lys Ser Leu Glu Gln Ile Val Asn Asn Met Thr Trp Met Glu Trp Asp Arg Glu Ile Asn Asn Thr Tyr THr Ser (NKSLEQIVNNMTWMEWDREINNTYTS) [#18, gp41-derived HIV envelope peptide, Env; 621-645]”: in assay [1], the “competition of the binding of biotin-labelled peptide A to HIV-derived peptides” value is “competed”. Also, the “CFH binding to the HIV envelope peptide” value in assay [2] is “targets of CFH binding”.

Regarding Heparin, in [3], the “competition with the binding of CFH to the HIV envelope peptides after preincubation” value is “inactive”. Moreover, in [4], the “inhibition of the binding of CFH to HIV and to the target peptides” value was “inhibited”. Further, in assay [5], the “competition with the binding of CFH to the HIV envelope peptides” value was “competed”.

KEFDHNSNIRYRCR [peptide b11]: the binding result in [6], in assay [7] and in [8] was “binds” each time.

In the case of IRYRCRGKEGWIHTVCINGRWDPEVNCS [Peptide B], the binding result in [6], in [7] and in assay [8] was “no binding (tested: 0 to 50 µg/ml)” in each case.

On to AIDKLKKCKSSNLIILEEHLKNKKEFDHNS [Peptide A], for which the binding result in [9], in [10] and in assay [11] was “binds” throughout.
